{
  "source": "paper PMC6697735",
  "about": "“Generation of amine dehydrogenases with increased catalytic performance and substrate scope from ε-deaminating L-Lysine dehydrogenase” (Nature Communications, 2019)",
  "key": {"[1]": {"test_system": "CC(=O)c1ccccc1", "assay": "purified protein", "conditions": "NADH model: phenyl ring in the new hydrophobic cavity created by F173A"}, "[2]": {"test_system": "O=Cc1ccccc1", "assay": "purified protein", "conditions": "NADH"}, "[3]": {"target": "T1, LE-AmDH-v1 (ε-deaminating L-lysine dehydrogenase LysEDH F173A) (Geobacillus stearothermophilus, UniProt Q9AJC6, F173A)", "T1 construct": "gene lysDH", "assay": "steady-state kinetics, Lineweaver-Burk competitive product inhibition, NADH oxidation at […] nm, […] °C", "assay_type": "biochemical"}},
  "data": [
    {"compound": "LE-AmDH-v1 (ε-deaminating L-lysine dehydrogenase LysEDH F173A) (Geobacillus stearothermophilus; F173A)", "values": [
      {"measurement": "Km", "setting": "[1]", "result": "5.5 ± 0.5", "unit": "mM"},
      {"measurement": "Km", "setting": "[2]", "result": "4.9 ± 0.5", "unit": "mM"}
    ]},
    {"compound": "C[C@@H](N)c1ccccc1", "note": "[(R)-8b]", "values": [
      {"measurement": "Ki", "setting": "[3]", "result": 4.48, "unit": "mM"}
    ]}
  ]
}
